What was measured:
HLA-A*31:01 = assay: IEDB peptide-MHC binding, purified MHC/direct/fluorescence; filed as Kd, often an IC50 or EC50 that approximates it; ≥ and ≤ were set here for values at or beyond the usual limits of such assays
HLA-B*46:01 [1] = assay: as above
HLA-B*57:01 [2] = assay: as above
HLA-A*29:02 [3] = assay: as above
HLA-A*02:01 [4] = assay: as above
HLA-A*69:01 [5] = assay: as above
HLA-A*03:01 [6] = assay: as above
HLA-B*39:01 [7] = assay: as above
HLA-B*18:01 [8] = assay: as above
HLA-B*44:02 = assay: as above
HLA-A*11:01 [9] = assay: as above
HLA-B*27:05 = assay: as above
HLA-A*01:01 = assay: as above
HLA-B*15:01 [10] = assay: as above
HLA-A*02:03 [11] = assay: IEDB peptide-MHC binding, purified MHC/competitive/fluorescence; filed as Kd, often an IC50 or EC50 that approximates it; ≥ and ≤ were set here for values at or beyond the usual limits of such assays; conditions: source organism: Human immunodeficiency virus 1
HLA-B*39:01 [12] = assay: as above
HLA-A*30:01 = assay: as above; conditions: source organism: Human immunodeficiency virus 1
HLA-B*07:02 = assay: IEDB peptide-MHC binding, purified MHC/direct/fluorescence; filed as Kd, often an IC50 or EC50 that approximates it; ≥ and ≤ were set here for values at or beyond the usual limits of such assays
HLA-B*58:01 = assay: as above
HLA-A*26:01 [13] = assay: IEDB peptide-MHC binding, purified MHC/competitive/fluorescence; filed as Kd, often an IC50 or EC50 that approximates it; ≥ and ≤ were set here for values at or beyond the usual limits of such assays
HLA-B*18:01 [14] = assay: as above
HLA-B*27:03 = assay: as above
HLA-B*08:02 = assay: IEDB peptide-MHC binding, purified MHC/direct/fluorescence; filed as Kd, often an IC50 or EC50 that approximates it; ≥ and ≤ were set here for values at or beyond the usual limits of such assays; conditions: source organism: West Nile virus strain PTRoxo
HLA-B*08:01 = assay: as above; conditions: source organism: West Nile virus
HLA-B*15:01 [15] = assay: IEDB peptide-MHC binding, purified MHC/competitive/fluorescence; ≥ and ≤ were set here for values at or beyond the usual limits of such assays
HLA-A*02:19 = assay: IEDB peptide-MHC binding, purified MHC/direct/fluorescence; filed as Kd, often an IC50 or EC50 that approximates it; ≥ and ≤ were set here for values at or beyond the usual limits of such assays; conditions: source organism: Salmonella enterica subsp. enterica serovar Typhimurium
HLA-A*29:02 [16] = assay: IEDB peptide-MHC binding, purified MHC/competitive/fluorescence; filed as Kd, often an IC50 or EC50 that approximates it; ≥ and ≤ were set here for values at or beyond the usual limits of such assays
HLA-B*46:01 [17] = assay: as above
HLA-B*57:01 [18] = assay: as above
HLA-A*68:02 = assay: as above; conditions: source organism: Bos taurus
HLA-A*02:01 [19] = assay: as above
HLA-A*69:01 [20] = assay: as above; conditions: source organism: Bos taurus
HLA-A*03:01 [21] = assay: as above
HLA-A*24:03 = assay: as above
HLA-B*51:01 = assay: as above
HLA-B*15:17 = assay: as above
HLA-A*02:01 [22] = assay: IEDB peptide-MHC binding, purified MHC/competitive/fluorescence; ≥ and ≤ were set here for values at or beyond the usual limits of such assays
HLA-A*11:01 [23] = assay: as above
HLA-B*15:03 = assay: IEDB peptide-MHC binding, purified MHC/competitive/radioactivity; filed as Kd, often an IC50 or EC50 that approximates it; ≥ and ≤ were set here for values at or beyond the usual limits of such assays; conditions: source organism: Vaccinia virus WR
HLA-A*24:02 = assay: IEDB peptide-MHC binding, purified MHC/competitive/fluorescence; ≥ and ≤ were set here for values at or beyond the usual limits of such assays
HLA-A*02:03 [24] = assay: IEDB peptide-MHC binding, purified MHC/direct/fluorescence; filed as Kd, often an IC50 or EC50 that approximates it; ≥ and ≤ were set here for values at or beyond the usual limits of such assays; conditions: source organism: Orthohantavirus negraense
HLA-A*26:01 [25] = assay: as above; conditions: source organism: Orthohantavirus negraense
[26] = source organism: Mycobacterium tuberculosis
[27] = source organism: Tai Forest virus - Cote d'Ivoire, Cote d'Ivoire, 1994
[28] = source organism: Tai Forest ebolavirus
[29] = source organism: West Nile virus
[30] = source organism: Salmonella enterica subsp. enterica serovar Typhimurium
[31] = source organism: Vaccinia virus
[32] = source organism: Vaccinia virus Copenhagen
[33] = source organism: Orthohantavirus negraense
[34] = source organism: Ephydatia fluviatilis
[35] = source organism: Sudan ebolavirus

For EKAAWGVAL, the Kd (HLA-A*31:01; [26]) was at least 20 µM, the Kd (HLA-B*46:01 [1]; [26]) was at least 20 µM and the Kd (HLA-B*57:01 [2]; [26]) was at least 20 µM. It also gave a Kd (HLA-A*29:02 [3]; [26]) of at least 20 µM, a Kd (HLA-A*02:01 [4]; [26]) of at least 20 µM and a Kd (HLA-A*69:01 [5]; [26]) of at least 20000 nM. It also gave a Kd (HLA-A*03:01 [6]; [26]) of at least 20 µM, a Kd (HLA-B*39:01 [7]; [26]) of 52 nM and a Kd (HLA-B*18:01 [8]; [26]) of at least 20 µM. The Kd (HLA-B*44:02; [26]) was at least 20 µM, the Kd (HLA-A*11:01 [9]; [26]) was at least 20 µM and the Kd (HLA-B*27:05; [26]) was at least 20 µM. It also gave a Kd (HLA-A*01:01; [26]) of at least 20 µM and a Kd (HLA-B*15:01 [10]; [26]) of at least 20 µM.
In the case of EKLKSLYNTV, the Kd (HLA-A*02:03 [11]) is reported as 643 nM, the Kd (HLA-B*39:01 [12]; source organism: Human immunodeficiency virus 1) is reported as 2.81 µM and the Kd (HLA-A*30:01) is reported as 175 nM.
In the case of ETFNTPAMY, the Kd (HLA-A*29:02 [3]; source organism: Entamoeba histolytica HM-1:IMSS) is reported as 0.01 µM, the Kd (HLA-A*02:01 [4]; source organism: Homo sapiens) is reported as at least 36.2 µM and the Kd (HLA-A*69:01 [5]; source organism: Homo sapiens) is reported as 59.6 nM. The Kd (HLA-A*03:01 [6]; source organism: Homo sapiens) was 10.5 µM, the Kd (HLA-A*11:01 [9]; source organism: Homo sapiens) was at least 38.9 µM and the Kd (HLA-A*01:01; source organism: Homo sapiens) was 1.27 µM. It also gave a Kd (HLA-B*15:01 [10]; source organism: Homo sapiens) of 0.554 µM.
Sequence FAEGVIAFL has a Kd (HLA-A*31:01; [27]) of at least 20 µM, a Kd (HLA-B*46:01 [1]; [27]) of at least 20 µM and a Kd (HLA-B*57:01 [2]; [27]) of at least 20 µM. For the same sequence, the Kd (HLA-A*03:01 [6]; [27]) was at least 20 µM, the Kd (HLA-B*07:02; [27]) was at least 20 µM and the Kd (HLA-B*58:01; [27]) was at least 20 µM. The Kd (HLA-B*39:01 [7]; [27]) was 539 nM, the Kd (HLA-B*44:02; [27]) was at least 20 µM and the Kd (HLA-A*11:01 [9]; [27]) was at least 20 µM. For the same sequence, the Kd (HLA-B*27:05; [27]) was at least 20 µM, the Kd (HLA-A*01:01; [27]) was at least 20 µM and the Kd (HLA-B*15:01 [10]; [27]) was at least 20 µM. The Kd (HLA-A*26:01 [13]; [28]) was at least 20 µM, the Kd (HLA-B*18:01 [14]; [28]) was at least 20 µM and the Kd (HLA-B*27:03; [28]) was at least 20 µM.
For GMSWITQGL, the Kd (HLA-B*08:02) was at least 20 µM, the Kd (HLA-A*31:01; [29]) was at least 20 µM and the Kd (HLA-B*46:01 [1]; [29]) was at least 20 µM. For the same sequence, the Kd (HLA-B*57:01 [2]; [29]) was at least 20 µM, the Kd (HLA-A*29:02 [3]; [29]) was at least 20 µM and the Kd (HLA-A*69:01 [5]; [29]) was 1330 nM. It also gave a Kd (HLA-A*03:01 [6]; [29]) of at least 20 µM, a Kd (HLA-B*07:02; [29]) of at least 20 µM and a Kd (HLA-B*58:01; [29]) of at least 20 µM. For the same sequence, the Kd (HLA-B*18:01 [8]; [29]) was at least 20 µM, the Kd (HLA-A*11:01 [9]; [29]) was at least 20 µM and the Kd (HLA-B*27:05; [29]) was at least 20 µM. It also gave a Kd (HLA-B*08:01) of at least 20 µM and a Kd (HLA-A*01:01; [29]) of at least 20 µM.
Work on GSLFTEQAF yielded an IC50 (HLA-B*15:01 [15]; source organism: Vaccinia virus WR) of 5.94 µM.
In the case of GVNACQVGV, the Kd (HLA-A*31:01; [30]) is reported as 10.2 µM, the Kd (HLA-A*02:01 [4]; [30]) is reported as 0.239 µM and the Kd (HLA-A*69:01 [5]; [30]) is reported as 392 nM. It also gave a Kd (HLA-B*58:01; [30]) of 0.392 µM and a Kd (HLA-A*02:19) of 23 nM.
With IWWEQYMQY the Kd (HLA-A*29:02 [16]; source organism: Shigella boydii) was at most 0.0001 µM.
Sequence KLGEGFKSL has a Kd (HLA-B*46:01 [17]; source organism: Bos taurus) of at least 20 µM, a Kd (HLA-B*57:01 [18]; source organism: Bos taurus) of at least 20 µM and a Kd (HLA-A*29:02 [16]; source organism: Bos taurus) of at least 20 µM. The Kd (HLA-A*68:02) was at least 20 µM, the Kd (HLA-A*02:01 [19]; source organism: Bos taurus) was 15.1 nM and the Kd (HLA-A*26:01 [13]; source organism: Bos taurus) was at least 20 µM. It also gave a Kd (HLA-A*69:01 [20]) of at least 20 µM, a Kd (HLA-A*03:01 [21]; source organism: Bos taurus) of at least 20 µM and a Kd (HLA-B*39:01 [12]; source organism: Bos taurus) of at least 20 µM. For the same sequence, the Kd (HLA-B*18:01 [14]; source organism: Bos taurus) was at least 20 µM, the Kd (HLA-B*27:03; source organism: Bos taurus) was at least 20 µM and the Kd (HLA-A*24:03; source organism: Bos taurus) was at least 20 µM. The Kd (HLA-B*51:01; source organism: Bos taurus) was at least 20 µM and the Kd (HLA-B*15:17; source organism: Bos taurus) was at least 20 µM.
KQKMFSNNV showed an IC50 (HLA-A*02:01 [22]; [31]) of 7.07 µM, an IC50 (HLA-A*11:01 [23]; [31]) of at least 116 µM and an IC50 (HLA-B*15:01 [15]; [31]) of 44.4 µM. The Kd (HLA-B*15:03) was 19.3 nM.
With KTFKDESIF the IC50 (HLA-A*02:01 [22]; [32]) was 66.8 µM, the IC50 (HLA-A*24:02; [32]) was 24.2 µM and the IC50 (HLA-A*11:01 [23]; [32]) was 61 µM. The IC50 (HLA-B*15:01 [15]; [32]) was 9.29 µM.
Work on NIYETEFFM yielded a Kd (HLA-A*02:03 [24]) of at least 20 µM, a Kd (HLA-A*26:01 [25]) of 1110 nM and a Kd (HLA-A*03:01 [6]; [33]) of at least 20 µM. The Kd (HLA-B*46:01 [17]; [33]) was at least 20 µM, the Kd (HLA-B*57:01 [18]; [33]) was at least 20 µM and the Kd (HLA-B*39:01 [12]; [33]) was at least 20 µM. It also gave a Kd (HLA-B*18:01 [14]; [33]) of at least 20 µM, a Kd (HLA-B*27:03; [33]) of at least 20 µM and a Kd (HLA-B*51:01; [33]) of at least 20 µM. It also gave a Kd (HLA-B*15:17; [33]) of at least 20 µM.
Sequence TLKPGTMSV has a Kd (HLA-B*57:01 [18]; [34]) of at least 20 µM, a Kd (HLA-A*29:02 [16]; [34]) of at least 20 µM and a Kd (HLA-A*02:01 [19]; [34]) of 41 nM. It also gave a Kd (HLA-A*26:01 [13]; [34]) of at least 20 µM, a Kd (HLA-A*03:01 [21]; [34]) of at least 20 µM and a Kd (HLA-B*39:01 [12]; [34]) of at least 20 µM. For the same sequence, the Kd (HLA-B*18:01 [14]; [34]) was at least 20 µM, the Kd (HLA-B*27:03; [34]) was at least 20 µM and the Kd (HLA-A*24:03; [34]) was at least 20 µM. It also gave a Kd (HLA-B*51:01; [34]) of at least 20 µM and a Kd (HLA-B*15:17; [34]) of at least 20 µM.
Sequence VIILFQKAF has an IC50 (HLA-A*02:01 [22]; [35]) of at least 544 µM, an IC50 (HLA-A*24:02; [35]) of 1.61 µM and an IC50 (HLA-B*15:01 [15]; [35]) of at least 143 µM.
Work on YRKEQQNAV yielded a Kd (HLA-B*39:01 [7]; source organism: Influenza A virus (A/Belfast/53582/2004(H3N?))) of 620 nM.

— the Immune Epitope Database (IEDB)
